Test results reported in publication PMC5358978, “Nuclear export receptor CRM1 recognizes diverse conformations in nuclear export signals” (eLife, 2017).

Target: human CRM1 (HsCRM1), wild type (human) (UniProt O14980)
Test: differential bleaching; competition titration of MBP-NES to FITC-PKI NES and CRM1 with excess RanGTP; triplicate; fitted with a set of direct titrations

Chain of human CRM1 (HsCRM1), wild type (human) (O14980 whole entry): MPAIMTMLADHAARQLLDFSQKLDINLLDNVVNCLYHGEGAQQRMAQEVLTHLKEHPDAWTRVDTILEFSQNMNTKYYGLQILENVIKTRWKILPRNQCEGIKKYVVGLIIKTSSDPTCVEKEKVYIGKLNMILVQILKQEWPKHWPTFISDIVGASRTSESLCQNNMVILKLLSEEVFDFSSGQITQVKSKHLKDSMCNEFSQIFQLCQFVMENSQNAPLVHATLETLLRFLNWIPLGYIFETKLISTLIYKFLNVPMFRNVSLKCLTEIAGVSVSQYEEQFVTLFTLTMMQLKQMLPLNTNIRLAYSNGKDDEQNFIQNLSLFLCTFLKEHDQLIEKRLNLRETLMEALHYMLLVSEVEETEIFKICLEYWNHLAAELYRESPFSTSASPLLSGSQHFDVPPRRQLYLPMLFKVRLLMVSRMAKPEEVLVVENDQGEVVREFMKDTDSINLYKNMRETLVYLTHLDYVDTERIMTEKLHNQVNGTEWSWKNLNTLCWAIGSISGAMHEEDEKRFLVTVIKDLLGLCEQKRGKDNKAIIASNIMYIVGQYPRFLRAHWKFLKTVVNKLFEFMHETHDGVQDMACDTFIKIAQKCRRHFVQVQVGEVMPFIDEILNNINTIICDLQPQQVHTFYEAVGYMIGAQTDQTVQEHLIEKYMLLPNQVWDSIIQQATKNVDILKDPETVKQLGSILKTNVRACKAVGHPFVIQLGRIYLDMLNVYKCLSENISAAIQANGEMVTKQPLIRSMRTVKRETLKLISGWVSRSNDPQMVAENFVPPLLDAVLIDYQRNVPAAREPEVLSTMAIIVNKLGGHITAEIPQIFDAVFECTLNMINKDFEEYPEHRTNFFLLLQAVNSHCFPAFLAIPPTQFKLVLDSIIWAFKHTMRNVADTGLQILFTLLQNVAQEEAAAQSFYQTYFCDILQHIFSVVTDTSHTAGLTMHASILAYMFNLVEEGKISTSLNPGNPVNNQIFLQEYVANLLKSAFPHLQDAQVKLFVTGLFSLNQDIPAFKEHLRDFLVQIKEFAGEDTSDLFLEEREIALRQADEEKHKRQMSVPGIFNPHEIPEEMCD

- Kd: 9.1 µM
Substance: MBP-mDia2 NES(Φ0A) mutant (peptide)
